Data taken from the supplement of paper PMC11908140.

B1: library; numbered along this chain (parent)
chain: MRKPRAAVGSGHRKQAASQEGRQKHAKNNSQAKPSACDGLARQPEEVVLQASVSSYHLFRDVAEVTAFRGSLLSWYDQEKRDLPWRRRAEDEMDLDRRAYAVWVSEVMLQQTQVATVINYYTGWMQKWPTLQDLASASLEEVNQLWAGLGYYSRGRRLQEGARKVVEELGGHMPRTAETLQQLLPGVGRYTAGAIASIAFGQATGVVDGNVARVLCRVRAIGADPSSTLVSQQLWGLAQQLVDPARPGDFNQAAMELGATVCTPQRPLCSQCPVESLCRARQRVEQEQLLASGSLSGSPDVEECAPNTGQCHLCLPPSEPWDQTLGVVNFPRKASRKPPREESSATCVLEQPGALGAQILLVQRPNSGLLAGLWEFPSVTWEPSEQLQRKALLQELQRWAGPLPATHLRHLGEVVHTFSHIKLTYQVYGLALEGQTPVTTVPPGARWLTQEEFHTAAVSTAMKKVFRVYQGQQPGTCMGSKRSQVSSPCSRKKPRMGQQVLDNFFRSHISTDAHSLNSAAQ

Variants of: B1
Assay: 8OG:A repair function score (normalized; synonymous = 0, nonsense = -1) (normalized log-likelihood score); higher = more repair activity (WT-like)
Conditions: with 8OG:A DNA repair reporter (GFP) in HEK-293 MUTYH KO cells
How it was run: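 Lentiviral MUTYH cDNA NNN codon-scan libraries were expressed in MUTYH knockout HEK-293 cells with 10 pg/ml doxycycline, and the cells received an 8OG:A GFP repair reporter together with mCherry. At 72 h, viable mCherry+ cells went into GFP+ (repair) or GFP− bins, three replicates per tile, before tile amplicons were sequenced. A repair function score was then built from per-tile Rosace fitness scores, anchored on the synonymous and nonsense distributions. Synonymous medians sat at 0 and nonsense at -1, and variants under 300 counts per million at the start were left out.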
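Note: cells sorted at 72 h after reporter transfection.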

Variant	8OG:A repair function score
L396Y	-1.21
S55E	-0.00704
D322H	-0.147
S105M	-0.981
R88I	0.00568
R281F	-0.126
S487F	-0.00307
W75G	-1.2
W75C	-1.25
T460M	-0.152
T460G	-0.0856
S270R	-0.00848
S270N	-0.0408
T263P	-0.461
R246G	-0.845
K464G	-0.315
A371F	-0.605
A371S	-0.172
A89P	-0.00485
A89D	-0.0385
G444M	-0.298

Variant	8OG:A repair function score
E287L	-0.0229
K481H	-0.0426
L370K	-0.936
L360I	-0.403
K463D	-0.287
V65Y	-0.0274
S367Q	-0.113
A245L	0.157
T176R	-0.102
T179K	0.0976
Y100C	-1.66
A345C	0.0391
L295R	-0.0249
R217N	-1.04
L361G	-0.729
A147D	-0.118
P474K	-0.0164
S490T	0.0117
W128A	-0.875
G297A	-0.00898
R364C	-0.262

Variant	8OG:A repair function score
R364I	-0.878
E452D	-0.0961
N503L	0.00339
R409L	0.0499
H407P	-0.0456
E275Q	0.0396
E275G	-0.00445
G209R	-0.364
E342R	0.0113
L40E	0.0138
T112N	-0.879
S292K	-0.0316
T346Y	-0.168
L131G	-0.424
L139K	-0.511
L432F	-0.116
L369W	0.187
Q78D	-0.00768
T511H	0.0209
Y152F	-0.371
A194K	-1.06

Variant	8OG:A repair function score
V48E	-0.122
E256F	-0.679
S276R	-0.0136
L237P	-0.931
S138D	-0.192
F453C	-0.791
V379N	-0.658
N307A	-0.0752
P338V	-0.0391
S298E	-0.0588
Q435E	-0.132
Q435I	0.00734
C314Y	-0.572
A520F	0.00424
L134E	-0.848
S335Y	-0.0347
S335G	-0.02
T439Q	-0.173
R398W	-0.973
R398V	-0.2
L430S	-0.127
